Measurements published in patent US20070022497A1, “Trans-2-enoyl-coa reductase gene of euglena gracilis” (BASF Plant Science GmbH, priority 2004, published 2007).

T1: trans-2-enoyl-CoA reductase (TER) (Euglena gracilis, UniProt Q5EU90)
T1 construct: One kilogram of Euglena gracilis strain Z cells grown under aerobic conditions for one week was used as starting material; endogenous in cells; host or cells: Euglena gracilis strain Z, aerobically grown; enzyme purified by chromatography (crude extract to Superdex 200)
T1 sequence (Q5EU90 137-539 limits assumed): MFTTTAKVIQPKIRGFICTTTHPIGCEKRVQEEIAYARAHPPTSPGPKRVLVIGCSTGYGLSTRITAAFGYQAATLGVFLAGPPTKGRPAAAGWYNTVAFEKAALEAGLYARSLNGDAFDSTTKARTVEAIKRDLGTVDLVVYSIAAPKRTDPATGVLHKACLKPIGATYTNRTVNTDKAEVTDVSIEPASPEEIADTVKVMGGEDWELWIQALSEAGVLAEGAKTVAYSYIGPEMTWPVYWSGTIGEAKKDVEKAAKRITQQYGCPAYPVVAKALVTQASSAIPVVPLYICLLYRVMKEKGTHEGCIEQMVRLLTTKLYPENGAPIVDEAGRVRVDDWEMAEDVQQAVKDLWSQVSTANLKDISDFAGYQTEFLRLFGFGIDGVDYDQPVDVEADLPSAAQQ

B1: SEQ ID NO: 4: shortened Ter gene ORF; protein SEQ ID NO: 5 with 28 amino acid N-terminal stretch predicted to give mitochondrial targeting (nucleic acid, listed as Euglena gracilis)
DNA: ATGGGCCGCCGCGGGGCCGCAGTGGGCGGCGCCGCTCGTGGCCGCGGCCTCCTCCGCACTGGCGCTGTGGTGGTGAACATCGCCACCGCGGTCACCCACCTGGCCCCCCCGATGGCGATGTTCACCACCACAGCGAAGGTCATCCAGCCCAAGATTCGTGGCTTCATCTGCACGACCACCCACCCGATCGGCTGTGAGAAGCGGGTCCAGGAGGAGATCGCGTACGCCCGTGCCCACCCGCCCACCAGCCCTGGCCCGAAGAGGGTGCTGGTCATCGGCTGCAGTACCGGCTACGGGCTCTCCACCCGCATCACCGCTGCCTTCGGCTACCAGGCCGCCACGCTGGGCGTGTTCCTGGCGGGCCCCCCGACGAAGGGCCGCCCCGCCGCGGCGGGCTGGTACAACACCGTGGCGTTCGAGAAGGCCGCCCTGGAGGCCGGGCTGTACGCCCGGAGCCTTAATGGCGACGCCTTCGACTCCACAACGAAGGCGCGGACGGTCGAGGCGATCAAGCGGGACCTCGGCACGGTGGACCTCGTGGTGTACAGCATCGCCGCCCCGAAGCGGACGGACCCTGCCACCGGCGTCCTCCACAAGGCCTGCCTGAAGCCCATCGGCGCCACGTACACCAACCGCACTGTGAACACCGACAAGGCGGAGGTGACCGACGTCAGCATTGAGCCGGCCTCCCCCGAAGAGATCGCGGACACGGTGAAGGTGATGGGCGGGGAGGACTGGGAGCTCTGGATCCAGGCGCTGTCGGAGGCCGGCGTGCTGGCGGAGGGGGCCAAGACGGTGGCGTACTCCTACATCGGCCCCGAGATGACGTGGCCTGTCTACTGGTCCGGCACCATCGGGGAGGCCAAGAAGGACGTGGAGAAGGCTGCCAAGCGCATCACGCAGCAGTACGGCTGCCCGGCGTACCCGGTGGTGGCCAAGGCCTTGGTCACCCAGGCCAGCTCCGCCATCCCGGTGGTGCCGCTCTACATCTGCCTGCTGTACCGCGTTATGAAGGAGAAGGGCACCCACGAGGGCTGCATCGAGCAGATGGTGCGGCTGCTCACCACGAAGCTGTACCCCGAGAACGGGGCCCCCATCGTCGATGAGGCCGGACGTGTGCGGGTGGATGACTGGGAGATGGCGGAGGATGTGCAGCAGGCTGTTAAGGACCTCTGGAGCCAGGTGAGCACTGCCAACCTCAAGGACATCTCCGACTTCGCTGGGTATCAAACTGAGTTCCTGCGGCTGTTCGGGTTCGGCATTGACGGCGTGGACTACGACCAGCCCGTGGACGTGGAGGCGGACCTCCCCAGTGCTGCCCAGCAGTAG
modifications: CDS (1)..(1329)
B2: ter2-protein: His-tagged truncated TER protein (from aa 136, 45 kDa) expressed in E. coli (protein, listed as Euglena gracilis)
chain: T1 sequence (Q5EU90 137-539 limits assumed)
modifications: His tag
notes: His-tagged truncated TER protein (from aa 136, 45 kDa) expressed in E. coli

How the values were obtained:
Arabidopsis thaliana = assay: Total seed lipid content of transgenic Arabidopsis plants over-expressing the TER gene (gas chromatography of fatty acids); format: in vivo; conditions: for Total seed lipids, % fatty acids: mean of two extractions, empty vector controls 28.3 ± 0.4
Protocol: Using floral dip essentially as described by Clough and Bent, 1998, plants are transformed with Agrobacterium tumefaciens C58C1 harboring the plasmid pSUN300-USP-TER-OCS respectively. Entire plants (inflorescence and rosette) are submerged for 20-30 sec in the infiltration media consisting of 5% sucrose, 0.02% Silwet L-77 (Osi Specialties, Danbury, Conn.) and re-suspended transformed A. tumefasciens cells. Plants are then transferred to a growth chamber with a photoperiod of 16 h of light at 21° C. and 8 h of dark at 18° C. (70% humidity) or a similarly air-conditioned greenhouse. The T1 seeds are collected from mature plants. Subsequently transformed plants were identified on selection media by growing T1 seeds on MS-agar plates supplemented with kanamycin (50 μg/ml).
Plant lipids were extracted from plant material as described by Cahoon et al. (1999, Proc. Natl. Acad. Sci. USA 96, 22:12935-12940) and Browse et al. (1986, Anal, Bio-chemistry 442:141-145). Qualitative and quantitative lipid or fatty acid analysis is described in Christie, William W., Advances in Lipid Methodology. Ayr/Scotland :Oily Press.—(Oily Press Lipid Library; Christie, William W., Gas Chromatography and Lipids. A Practical Guide—Ayr, Scotland :Oily Press, 1989 Repr. 1992.—IX,307).
The total lipid content of dry T2 generation seeds from Arabidopsis thaliana plants over-expressing SEQ ID NO: 1, SEQ ID NO: 4 or SEQ ID NO: 6 will be increased compared to the empty vector Arabidopsis thaliana control plants not expressing SEQ ID NO: 1, SEQ ID NO: 4 or SEQ ID NO: 6. As an example the T2 seed lipid content determined by conventional gas chromatography as mg fatty acids per mg dry seeds of the plants overexpressing SEQ ID NO: 4 is given in table 4. Each value is the mean of two separate extractions of the seed of the given line. The control value is the mean of the seeds of 4 empty vector control plants grown simultaneously, each extracted and measured also in duplicate.

[1] = target: T1, trans-2-enoyl-CoA reductase (TER); assay: trans-2-enoyl-CoA reductase enzyme activity assay (decrease of absorbance at 340 nm with Crotonyl-CoA and NADH); format: biochemical; conditions: His-Tag protein from ter2-pET28 in E. coli BL21 (DE3), purified via Ni-NTA agarose
Protocol: Enzyme activity was measured as described by Inui, H. et al. (1984) Eur. J. Biochem. 142: 121-126 with the following modifications. The assay mixture contained 100 mM potassiumphosphate buffer pH 6,2; 0,75 mM Crotonyl-CoA (Sigma); 0,4 mM NADH and 2 μM FAD and enzyme. The assay mixture without substrate was preincubated for 10 min at 30° C. The reaction was also performed at 30° C. and started with the addition of substrate. The activity was determined by the decrease of absorbance at 340 nm. The final assay volume was 1 ml (Ultrospec 2000 Spectrophotometer, Amersham Biosciences) or 200 μl (GENios microplate reader, Tecan Instruments, Maennedorf, Switzerland).

Molecule | increase in seed storage lipids compared to the controls (Arabidopsis thaliana; independent T2 lines, seed specific promoter, relative to empty pSun300-USP vector controls (FIG. 9)) | Total seed lipids, % fatty acids (Arabidopsis thaliana; transgenic line 7, dry T2 seeds) [%] | Total seed lipids, % fatty acids (Arabidopsis thaliana; transgenic line 10, dry T2 seeds) [%] | Total seed lipids, % fatty acids (Arabidopsis thaliana; transgenic line 22, dry T2 seeds) [%] | Specific activity of purified ter2-protein [1] [nmol/mg/min]
B1 | at least 10% | 35.5 ± 3.2 | 32.4 ± 1.1 | 31.4 ± 0.9 | 
B2 |  |  |  |  | 1510
